# Paper PMC7566517
# Target: HER3 on HER3-overexpressing HEK293 cells (human) (UniProt P21860)
# Experiment: flow cytometry on cells; stable HEK293 cells expressing HER3 or HER4; purified NRG-1 mutants at 1 and 10 μg/mL, 4 °C, 1 h; goat antihuman Alexa Fluor 647
# HER3 on HER3-overexpressing HEK293 cells (human), sequence (P21860 20-1342): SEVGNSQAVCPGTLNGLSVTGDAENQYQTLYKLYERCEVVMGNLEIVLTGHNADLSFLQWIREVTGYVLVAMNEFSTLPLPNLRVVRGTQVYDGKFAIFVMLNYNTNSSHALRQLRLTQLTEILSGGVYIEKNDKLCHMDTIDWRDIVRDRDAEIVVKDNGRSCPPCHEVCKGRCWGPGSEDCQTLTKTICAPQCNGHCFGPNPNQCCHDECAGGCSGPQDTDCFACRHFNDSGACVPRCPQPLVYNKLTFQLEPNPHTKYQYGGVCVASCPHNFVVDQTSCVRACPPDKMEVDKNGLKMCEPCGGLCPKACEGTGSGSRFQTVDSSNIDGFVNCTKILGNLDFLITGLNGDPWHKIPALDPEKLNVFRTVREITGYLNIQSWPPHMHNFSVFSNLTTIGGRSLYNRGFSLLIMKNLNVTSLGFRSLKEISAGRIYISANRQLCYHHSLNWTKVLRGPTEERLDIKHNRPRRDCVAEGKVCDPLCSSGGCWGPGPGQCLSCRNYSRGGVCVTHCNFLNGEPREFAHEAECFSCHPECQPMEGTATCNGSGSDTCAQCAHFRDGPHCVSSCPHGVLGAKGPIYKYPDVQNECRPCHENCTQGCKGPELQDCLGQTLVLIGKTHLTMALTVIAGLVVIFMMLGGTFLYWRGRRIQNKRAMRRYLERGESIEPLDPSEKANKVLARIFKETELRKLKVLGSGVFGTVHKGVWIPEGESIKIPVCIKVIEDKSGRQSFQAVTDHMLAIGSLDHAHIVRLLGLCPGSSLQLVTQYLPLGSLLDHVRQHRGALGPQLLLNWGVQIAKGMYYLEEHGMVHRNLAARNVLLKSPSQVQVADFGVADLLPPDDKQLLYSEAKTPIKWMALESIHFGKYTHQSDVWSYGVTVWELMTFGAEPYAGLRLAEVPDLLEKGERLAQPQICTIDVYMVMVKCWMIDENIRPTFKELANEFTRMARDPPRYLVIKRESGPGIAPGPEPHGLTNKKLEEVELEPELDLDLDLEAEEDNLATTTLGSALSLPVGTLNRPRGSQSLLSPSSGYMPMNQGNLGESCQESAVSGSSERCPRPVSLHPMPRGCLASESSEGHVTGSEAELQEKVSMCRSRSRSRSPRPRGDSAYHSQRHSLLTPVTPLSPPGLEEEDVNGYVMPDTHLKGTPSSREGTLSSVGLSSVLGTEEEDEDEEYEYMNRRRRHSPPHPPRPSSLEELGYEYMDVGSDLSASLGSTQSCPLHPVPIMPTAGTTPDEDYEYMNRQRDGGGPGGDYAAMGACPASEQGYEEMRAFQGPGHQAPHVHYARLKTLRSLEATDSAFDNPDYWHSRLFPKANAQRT
row,ratio of median binding fluorescence to the parental clone,Substance
1,< 0.8,NRG1-MFc variant T41A (Fc fusion)
2,< 0.8,NRG1-MFc variant P29D (Fc fusion)
3,< 0.8,NRG1-MFc variant P29L (Fc fusion)
4,< 0.8,NRG1-MFc variant H2E (Fc fusion)
5,< 0.8,NRG1-MFc variant E8L (Fc fusion)
6,< 0.8,NRG1-MFc variant K24G (Fc fusion)
7,< 0.8,NRG1-MFc variant H2T (Fc fusion)
